Data taken from the supplement of paper PMC9170038.

System: MS2 coat protein
Assay: apparent KD of MS2 coat protein; higher = weaker reporter binding
Settings: Eterna round: R107
Outline: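 Apparent KD per design is the median of normalised cluster binding-curve fits. Designed RNA switches transcribed on-chip from Illumina sequencing clusters were titrated with SNAP-549-labelled MS2 coat protein in twofold steps from 0.7 or 1.5 nM to 3 µM, with 0.8–1.5 h down to 10–20 min per step. Buffer: 100 mM Tris-HCl pH 7.5, 80 mM KCl, 4 mM MgCl2, without or with constant ligand.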

[1] = input ligand: theophylline 20 uM
[2] = input ligand: tryptophan 2.4 mM
[3] = input ligand: theophylline 2 mM

| Sequence | apparent KD of MS2 coat protein (input ligand: arginine 13.2 mM) [µM] | apparent KD of MS2 coat protein [1] [µM] | apparent KD of MS2 coat protein [2] [µM] | apparent KD of MS2 coat protein (input ligand: none) [µM] | apparent KD of MS2 coat protein [3] [µM] |
| --- | --- | --- | --- | --- | --- |
| GGACAACAUGAGGAUCACCCAUGUCCUGAUACCAGUCAGCGCAGUGACCCUUGGCAGCAGACGGAUACGAAAUAACUGAGAGAUA [theeternabot_sameState_MS2_Theo_A_44] | 0.0292 | 0.065 | 0.062 | – | – |
| GGACCAGGGAGCGAUACCAGCUUGAGUGUGCUGGCCAGGCACAUGAGGAUCACCCAUGUAAGCCCUUGGCAGCGCUCCCUGGUCC [#1 Exclusion - Theophylline B Attempt #27 (HarryS)] | 0.00687 | 0.0153 | 0.0111 | 0.00965 | 0.0139 |
| GGACUAACCAGAAGGAGCGACACAGCAGAAACUGCAAAUCCUCCGCACGAGGAUCACCCGUGUCAGGUAGGUCGCUGGUUAGUCG [ArgBX 28] | 0.0374 | 0.0559 | 0.0427 | 0.0495 | 0.0716 |
| GGACUAACCAGAAGGAGCGGCACGCAGAAACUGCAAAUUCCUCCGCACGAGGAUCACCCGUGUCAGGUAGGUCGCUGGUUAGUCG [ArgBX 28] | 0.0208 | 0.0259 | 0.0226 | 0.0197 | 0.024 |
| GGAGGCCUUAGGGAUACCAGCUAAGUUGAGUACAUGAGGAUCACCCAUGUGUUCCCAGAGAGCCCUUGGCAGCCCUCAUCCGUUC [theeternabot_sameState_MS2_Theo_B_7] | 0.0145 | 0.0139 | 0.0124 | – | – |
| GGAUAGAUAGGAGAUACCAGAUACAUAAACAUGAGGAUCACCCAUGUGUCUGCACUAAGUAUCCCUUGGCAGCUCGGAGAUCUGA [#17 Same State - Theophylline B] | 0.0174 | 0.0217 | 0.0185 | – | – |
| GGAUAGGACACGGCCGCCACUACCUAGGAUACUAGCAACAUUUGGGUACACGAGGAUCACCCGUGUAGGACCGGGUGUCCUAUCG | 0.0326 | 0.0181 | 0.0192 | 0.0107 | 0.0136 |
| GGAUAGGACACGGCCGCCACUAGCUAGGAUACUAGCAACAUUUCCUCACCUGAGGAUCACCCUGGUAGGACCGGGUGUCCUAUCG | 0.134 | 0.569 | 0.394 | 0.353 | 1.39 |
| GGAUAGGACACGGCCGCCACUAGCUAGGAUACUAGCAACAUUUCCUCGCAUGAGGAUCACCCAUGUAGGACCGGGUGUCCUAUCG | 0.159 | 0.638 | 0.484 | 0.462 | 0.495 |
